# According to US20150104459A1:
# Where “and” joins values, the source holds several entries; their conditions need not be identical. Equal values may be shown once.
# B1: TCN-533 (5256_A17) (antibody, V domains shown)
# VH: QVQLVQSGADVKKPGSSVTVSCKASGGSFSNYGINWVRQAPGQGLEWMGGIIPLINAPNYAPKFQGRVTITADMFSNIVSLQLTSLRTDDTAVYYCARRKMTTAIDYWGQGTLVTVSS
# VL: QPVLSQPPSASASLGASVTLTCTLSSGFDNYQVAWYQQRPGKGPRFVMRVGNGGNVASKGDGIPDRFSVSGSGLNRYLTIKNIQEDDESDYYCGADHGSGNNFVSPYVFGGGTKLTVL
# B2: TCN-534 (5249_B02) (antibody, V domains shown)
# VH: QVQLVQSGAEVKKPGSSVKVSCRESGGTFNGYTITWVRQAPGQGLEWMGGIIPMMGTVNYAQKLQGRVTITTDYFTKTAYMDLNNLRSEDTAMYYCVKIRYTGQQLLWGQGTLVTVSS
# VL: DIQMTQSPSTLSASIGDRVTITCRASQSIASWLAWYQQKPGKAPKLLIYEAVNLESGVPSRFSGSGSGTDFTLTISSLQPDDFATYFCQHYGTISQTFGGGTKVEIK
# B3: TCN-504 (3251_K17) (antibody, V domains shown)
# VH: QVQLQESGPGLVKPSETLSLTCAVSGVSISNIDFYWGWIRQPPGKGLEWIGNIYYTGITFYNPSLSSRVAISIDTSKNQFSLTLTSVTAADTAMYYCARHYGDSEAINDAFDIWGQGTMLTVSS
# VL: EIVMTQSPATLSVSPGERATLSCRASQSVGNSLAWYQQRPGQAPRLLIYGASTRATGIPPRFSGSGSGTEFTLTISSLQTEDFAVYYCQQYINWRPLSFGGGTKVEIK
# Legend:
# Details in all cases: remark: other sources report otherwise
# [1] = target: recombinant homotrimeric HA, A/Indonesia/5/05 H5N1 (Influenza A virus A/Indonesia/5/05 (H5N1)); assay: trimeric HA microarray; transfection supernatant set 3
# [2] = target: recombinant homotrimeric HA, A/northern shoveler/California/HKWF115/07 (Influenza A virus A/northern shoveler/California/HKWF115/2007 (H6N1; Table 16 prints H6N4)); assay: as above
# [3] = target: recombinant homotrimeric HA, A/Anhui/1/05 H5N1 (Influenza A virus A/Anhui/1/05 (H5N1)); assay: as above
# [4] = target: recombinant homotrimeric HA, A/California/4/09 H1N1 (Influenza A virus A/California/4/09 (H1N1)); assay: as above
# [5] = target: recombinant homotrimeric HA, A/Vietnam/1203/04 H5N1 (Influenza A virus A/Vietnam/1203/04 (H5N1)); assay: as above
# [6] = target: recombinant homotrimeric HA, A/chicken/Vietnam/NCVD-016/08 H5N1 (Influenza A virus A/chicken/Vietnam/NCVD-016/08 (H5N1)); assay: as above
# [7] = target: recombinant homotrimeric HA, A/Hong Kong/1073/99 H9N2 (Influenza A virus A/Hong Kong/1073/99 (H9N2)); assay: as above
# [8] = target: recombinant homotrimeric HA, A/South Carolina/1/18 H1N1 (Influenza A virus A/South Carolina/1/18 (H1N1)); assay: as above
# [9] = target: recombinant homotrimeric HA, A/Solomon Islands/3/06 H1N1 (Influenza A virus A/Solomon Islands/3/06 (H1N1)); assay: as above
# [10] = target: recombinant homotrimeric HA, A/Japan/305/57 H2N2 (Influenza A virus A/Japan/305/57 (H2N2)); assay: as above
# [11] = target: recombinant homotrimeric HA, A/Egypt/3300-NAMRU3/08 H5N1 (Influenza A virus A/Egypt/3300-NAMRU3/08 (H5N1)); assay: as above
# [12] = target: T1, recombinant homotrimeric HA, A/Wisconsin/67/05 H3N2 (Influenza A virus A/Wisconsin/67/05 (H3N2)); assay: as above
# [13] = target: recombinant homotrimeric HA, A/common magpie/Hong Kong/5052/07 H5N1 (Influenza A virus A/common magpie/Hong Kong/5052/07 (H5N1)); assay: as above
# [14] = target: T2, recombinant soluble homotrimeric HA of A/Indonesia/5/05 (H5N1) (Influenza A virus A/Indonesia/5/2005 (H5N1)); assay: HA microarray, BCC supernatant
# [15] = target: T3, recombinant soluble homotrimeric HA of A/Wisconsin/67/05 (H3N2) (Influenza A virus A/Wisconsin/67/2005 (H3N2)); assay: HA microarray, BCC supernatant
# [16] = target: T4, recombinant soluble homotrimeric HA of A/Solomon Islands/3/06 (H1N1) (Influenza A virus A/Solomon Islands/3/2006 (H1N1)); assay: HA microarray, BCC supernatant
# [17] = target: recombinant soluble homotrimeric HA of A/northern shoveler/California/HKWF115/2007 (H6N1) (Influenza A virus A/northern shoveler/California/HKWF115/2007 (H6N1)); assay: HA microarray, BCC supernatant
# [18] = target: T5, recombinant soluble homotrimeric HA of A/California/4/09 (H1N1) (Influenza A virus A/California/04/2009 (H1N1)); assay: HA microarray, BCC supernatant
# [19] = target: T6, recombinant soluble homotrimeric HA of A/Vietnam/1203/04 (H5N1) (Influenza A virus A/Vietnam/1203/2004 (H5N1)); assay: HA microarray, BCC supernatant
# [20] = target: T7, recombinant soluble homotrimeric HA of A/Anhui/1/05 (H5N1) (Influenza A virus A/Anhui/1/2005 (H5N1)); assay: HA microarray, BCC supernatant
# [21] = target: T8, recombinant soluble homotrimeric HA of A/Egypt/3300-NAMRU3/08 (H5N1) (Influenza A virus A/Egypt/3300-NAMRU3/2008 (H5N1)); assay: HA microarray, BCC supernatant
# [22] = target: T9, recombinant soluble homotrimeric HA of A/Japan/305/57 (H2N2) (Influenza A virus A/Japan/305/1957 (H2N2)); assay: HA microarray, BCC supernatant
# [23] = target: T10, recombinant soluble homotrimeric HA of A/duck/Yangzhou/02/2005 (H8N4) (Influenza A virus A/duck/Yangzhou/02/2005 (H8N4)); assay: HA microarray, BCC supernatant
# [24] = target: T11, recombinant soluble homotrimeric HA of A/chicken/Vietnam/NCVD-016/08 (H5N1) (Influenza A virus A/chicken/Vietnam/NCVD-016/2008 (H5N1)); assay: HA microarray, BCC supernatant
# [25] = target: recombinant soluble homotrimeric HA, A/Hong Kong/2108/03 (H9N2) (influenza A virus A/Hong Kong/2108/2003 (H9N2)); assay: microarray, trimeric HA, transfection supernatant
# [26] = target: recombinant soluble homotrimeric HA, A/chicken/Vietnam/NCVD-016/08 (H5N1) (influenza A virus A/chicken/Vietnam/NCVD-016/2008 (H5N1)); assay: microarray, trimeric HA, transfection supernatant
# [27] = target: recombinant soluble homotrimeric HA, A/northern shoveler/California/HKWF115/2007 (H6N1) (influenza A virus A/northern shoveler/California/HKWF115/2007 (H6N1)); assay: microarray, trimeric HA, transfection supernatant
# [28] = target: recombinant soluble homotrimeric HA, A/Hong Kong/1073/99 (H9N2) (influenza A virus A/Hong Kong/1073/99 (H9N2)); assay: microarray, trimeric HA, transfection supernatant
# [29] = target: T1, recombinant homotrimeric HA, …; assay: trimeric HA microarray; transfection supernatant set 4
# [30] = target: T2, recombinant soluble homotrimeric HA of …; assay: HA microarray, control mAb
# [31] = target: T3, recombinant soluble homotrimeric HA of …; assay: HA microarray, control mAb
# [32] = target: T4, recombinant soluble homotrimeric HA of …; assay: HA microarray, control mAb
# [33] = target: recombinant soluble homotrimeric HA of A/swine/Ontario/01911-2/99 (H4N6) (Influenza A virus A/Swine/Ontario/01911-2/99 (H4N6)); assay: HA microarray, control mAb
# [34] = target: T5, recombinant soluble homotrimeric HA of …; assay: HA microarray, control mAb
# [35] = target: T6, recombinant soluble homotrimeric HA of …; assay: HA microarray, control mAb
# [36] = target: T7, recombinant soluble homotrimeric HA of …; assay: HA microarray, control mAb
# [37] = target: recombinant soluble homotrimeric HA of A/Netherlands/219/03 (H7N7) (Influenza A virus A/Netherlands/219/03 (H7N7)); assay: HA microarray, control mAb
# [38] = target: recombinant soluble homotrimeric HA of A/Hong Kong/2108/03 (H9N2) (Influenza A virus A/Hong Kong/2108/2003 (H9N2)); assay: HA microarray, control mAb
# [39] = target: T8, recombinant soluble homotrimeric HA of …; assay: HA microarray, control mAb
# [40] = target: T9, recombinant soluble homotrimeric HA of …; assay: HA microarray, control mAb
# [41] = target: T10, recombinant soluble homotrimeric HA of …; assay: HA microarray, control mAb
# [42] = target: T11, recombinant soluble homotrimeric HA of …; assay: HA microarray, control mAb
# [43] = target: recombinant soluble homotrimeric HA, A/Hong Kong/156/97 (H5N1) (influenza A virus A/Hong Kong/156/97 (H5N1)); assay: microarray, trimeric HA, transfection supernatant
# [44] = target: recombinant soluble homotrimeric HA, A/Anhui/1/05 (H5N1) (influenza A virus A/Anhui/1/2005 (H5N1)); assay: microarray, trimeric HA, transfection supernatant
# [45] = target: recombinant soluble homotrimeric HA, A/duck/Yangzhou/02/2005 (H8N4) (influenza A virus A/duck/Yangzhou/02/2005 (H8N4)); assay: microarray, trimeric HA, transfection supernatant
binder,measurement,setting,value
B1,Trimeric HA Binding: RLU,[1],28300 RLU
same,Trimeric HA Binding: RLU,[2],7810 RLU
same,Trimeric HA Binding: RLU,[3],301 RLU
same,Trimeric HA Binding: RLU,[4],6880 RLU
same,Trimeric HA Binding: RLU,[5],11700 RLU
same,Trimeric HA Binding: RLU,[6],24600 RLU
same,Trimeric HA Binding: RLU,[7],23800 RLU
same,Trimeric HA Binding: RLU,[8],16400 RLU
same,Trimeric HA Binding: RLU,[9],15500 RLU
same,Trimeric HA Binding: RLU,[10],18600 RLU
same,Trimeric HA Binding: RLU,[11],18600 RLU
same,Trimeric HA Binding: RLU,[12],16100 RLU
same,Trimeric HA Binding: RLU,[13],25200 RLU
same,Trimeric HA Binding RLU,[14],44100 RLU
same,Trimeric HA Binding RLU,[15],13800 RLU
same,Trimeric HA Binding RLU,[16],39200 RLU
same,Trimeric HA Binding RLU,[17],41400 RLU
same,Trimeric HA Binding RLU,[18],29300 RLU
same,Trimeric HA Binding RLU,[19],5680 RLU
same,Trimeric HA Binding RLU,[20],8060 RLU
same,Trimeric HA Binding RLU,[21],34300 RLU
same,Trimeric HA Binding RLU,[22],10800 RLU
same,Trimeric HA Binding RLU,[23],24700 RLU
same,Trimeric HA Binding RLU,[24],47700 RLU
B2,Trimeric HA Binding RLU,[25],27 RLU
same,Trimeric HA Binding RLU,[26],11400 RLU
same,Trimeric HA Binding RLU,[27],21300 RLU
same,Trimeric HA Binding RLU,[28],731 RLU
same,Trimeric HA Binding: RLU,[29],897 RLU
same,Trimeric HA Binding RLU,[14],46400 RLU
same,Trimeric HA Binding RLU,[15],7980 RLU
same,Trimeric HA Binding RLU,[16],44200 RLU
same,Trimeric HA Binding RLU,[17],52400 RLU
same,Trimeric HA Binding RLU,[18],30100 RLU
same,Trimeric HA Binding RLU,[19],3440 RLU
same,Trimeric HA Binding RLU,[20],6860 RLU
same,Trimeric HA Binding RLU,[21],41400 RLU
same,Trimeric HA Binding RLU,[22],50600 RLU
same,Trimeric HA Binding RLU,[23],46500 RLU
same,Trimeric HA Binding RLU,[24],56600 RLU
B3,Trimeric HA Binding RLU,[30],43300 RLU
same,Trimeric HA Binding RLU,[31],40500 RLU
same,Trimeric HA Binding RLU,[32],24100 RLU
same,Trimeric HA Binding RLU,[33],14700 RLU
same,Trimeric HA Binding RLU,[34],3330 RLU
same,Trimeric HA Binding RLU,[35],196 RLU
same,Trimeric HA Binding RLU,[36],26200 RLU
same,Trimeric HA Binding RLU,[37],47200 RLU
same,Trimeric HA Binding RLU,[38],454 RLU
same,Trimeric HA Binding RLU,[39],44400 RLU
same,Trimeric HA Binding RLU,[40],4090 RLU
same,Trimeric HA Binding RLU,[41],14100 RLU
same,Trimeric HA Binding RLU,[42],38500 RLU
same,Trimeric HA Binding RLU,[43],26600 RLU
same,Trimeric HA Binding RLU,[44],30000 RLU and 14100 RLU and 37200 RLU
same,Trimeric HA Binding RLU,[45],19600 RLU and 19900 RLU and 35100 RLU
